These results are taken from article doi:10.1101/2023.08.28.555081 (bioRxiv, 2023).

The data set deals with the molecule itself. Kind of data set: negative-stain electron microscopy.

Numbering of substitutions follows the chain as printed.

B1: Light-Dependent Protochlorophyllide Oxidoreductase, PORB isoform of A. thaliana, wild type (enzyme)
chain: QTAATSSPTVTKSVDGKKTLRKGNVVVTGASSGLGLATAKALAETGKWNVIMACRDFLKAERAAKSVGMPKDSYTVMHLDLASLDSVRQFVDNFRRTETPLDVLVCNAAVYFPTAKEPTYSAEGFELSVATNHLGHFLLARLLLDDLKKSDYPSKRLIIVGSITGNTNTLAGNVPPKANLGDLRGLAGGLNGLNSSAMIDGGDFDGAKAYKDSKVCNMLTMQEFHRRFHEETGVTFASLYPGCIASTGLFREHIPLFRALFPPFQKYITKGYVSETESGKRLAQVVSDPSLTKSGVYWSWNNASASFENQLSEEASDVEKARKVWEISEKLVGLA
On to B1, for which the binding result is listed as “binds”.

B2: Light-Dependent Protochlorophyllide Oxidoreductase (AtPORB) Y177F_H319A double mutant (enzyme, A. thaliana)
chain: B1 chain with Y111F, H253A
Consider B2, for which the binding result was “binds”.
